Measurements as given in patent US20230383288, “SYSTEMS, METHODS, AND COMPOSITIONS FOR RNA-GUIDED RNA-TARGETING CRISPR EFFECTORS” (Massachusetts Institute of Technology, published 2023).

Molecular target: T1, DiCas7-11 D429A/D654A (Desulfonema ishimotonii, D429A,D654A)
T1 chain: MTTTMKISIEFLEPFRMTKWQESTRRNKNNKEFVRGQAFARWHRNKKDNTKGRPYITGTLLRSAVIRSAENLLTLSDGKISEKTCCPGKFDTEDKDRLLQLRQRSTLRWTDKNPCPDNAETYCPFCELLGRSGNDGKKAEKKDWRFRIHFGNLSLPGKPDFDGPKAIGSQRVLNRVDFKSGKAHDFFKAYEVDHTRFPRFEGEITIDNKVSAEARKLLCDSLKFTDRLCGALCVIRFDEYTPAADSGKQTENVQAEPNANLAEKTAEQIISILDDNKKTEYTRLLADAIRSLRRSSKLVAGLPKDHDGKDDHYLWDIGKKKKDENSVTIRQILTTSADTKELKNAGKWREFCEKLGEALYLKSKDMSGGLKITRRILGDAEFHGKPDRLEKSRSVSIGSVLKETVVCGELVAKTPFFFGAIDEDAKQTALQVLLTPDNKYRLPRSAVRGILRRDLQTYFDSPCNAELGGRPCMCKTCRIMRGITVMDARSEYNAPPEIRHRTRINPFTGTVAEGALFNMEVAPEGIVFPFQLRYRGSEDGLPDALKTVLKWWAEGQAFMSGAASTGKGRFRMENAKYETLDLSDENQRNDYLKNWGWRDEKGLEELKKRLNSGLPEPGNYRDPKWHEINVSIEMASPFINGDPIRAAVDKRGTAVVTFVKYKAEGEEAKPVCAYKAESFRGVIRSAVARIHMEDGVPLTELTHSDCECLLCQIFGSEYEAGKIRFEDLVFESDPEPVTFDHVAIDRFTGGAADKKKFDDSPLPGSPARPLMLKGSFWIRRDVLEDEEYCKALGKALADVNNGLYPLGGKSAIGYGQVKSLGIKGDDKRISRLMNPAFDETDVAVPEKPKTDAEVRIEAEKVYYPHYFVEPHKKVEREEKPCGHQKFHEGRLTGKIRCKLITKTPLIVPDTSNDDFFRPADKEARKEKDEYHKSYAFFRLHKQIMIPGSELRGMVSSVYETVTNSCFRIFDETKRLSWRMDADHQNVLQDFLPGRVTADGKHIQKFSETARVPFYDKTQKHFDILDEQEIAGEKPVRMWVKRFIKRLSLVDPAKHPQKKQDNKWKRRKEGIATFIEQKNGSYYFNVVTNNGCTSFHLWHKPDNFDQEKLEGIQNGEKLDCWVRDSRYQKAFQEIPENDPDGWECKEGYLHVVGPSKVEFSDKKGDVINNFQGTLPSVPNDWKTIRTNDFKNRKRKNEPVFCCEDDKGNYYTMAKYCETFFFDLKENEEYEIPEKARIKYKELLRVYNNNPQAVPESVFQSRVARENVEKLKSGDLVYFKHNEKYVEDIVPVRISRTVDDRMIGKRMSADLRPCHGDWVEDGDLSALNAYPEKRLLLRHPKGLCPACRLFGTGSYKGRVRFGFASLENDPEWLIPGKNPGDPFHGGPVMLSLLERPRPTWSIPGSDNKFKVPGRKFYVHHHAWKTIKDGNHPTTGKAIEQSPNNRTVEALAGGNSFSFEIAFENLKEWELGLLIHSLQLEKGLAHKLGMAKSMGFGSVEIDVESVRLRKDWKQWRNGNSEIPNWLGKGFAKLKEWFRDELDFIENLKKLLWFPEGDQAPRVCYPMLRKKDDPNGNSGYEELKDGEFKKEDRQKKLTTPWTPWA
Experiment: structure; cryo-EM 2.45 A, PDB 7WAH; 20 mM Hepes pH 7.0, 150 mM NaCl, 2 mM MgCl2; target pairs with crRNA 1-23 except flipped 4 and 10
Settings: tags: N-terminal MBP, C-terminal His6
Method: A Cas7-11-crRNA-target RNA complex was reconstituted by mixing the purified MBP-Cas7-11 protein, the 39-nucleotide crRNA, and the 25-nucleotide target RNA, at a molar ratio of 1:1.2:1.5. The complex was purified by size-exclusion chromatography on a Superose6 Increase 10/300 column (GE Healthcare), equilibrated with the buffer containing 20 mM Hepes-NaOH, pH 7.0, 150 mM NaCl, 2 mM MgCl₂, and 1 mM DTT. The peak fraction containing Cas7-11-:crRNA-target RNA complex was concentrated to 1.5 A260 units using an Amicon Ultra-4 filter (10 kDa molecular-weight cutoff; Millipore). The samples (3 μl) were then applied to freshly glow-discharged Au 300 mesh R1.2/1.3 grids (Quantifoil) in a Vitrobot Mark IV (FEI) at 4° C. with a waiting time of 10 sec and a blotting time of 4 sec under 100% humidity conditions. The grids were plunge-frozen into liquid ethane cooled at liquid nitrogen temperature.
A model was built using Nautilus and Buccaneer in CCP-EM package and manually built using COOT against the density map sharpened using DeepEMhancer. […] The curve representing model vs. full map was calculated using phenix.mtriage, based on the final model and the full, filtered, and sharpened map. The cryo-EM density maps were calculated with UCSF ChimeraX, and molecular graphics figures were prepared with CueMol (http://www.cuemol.org).

B1: crRNA for structural analysis ; target RNA for structural analysis (ssRNA ; ssRNA)
RNA 1: GGUGAUGUCACGGAACCUUUGUUGUCUUCGACAUGGGUAAU
RNA 2: GGAUUACCCAUGUCGAAGACAACAAAG
B1: binds.
